B1: PDS5B (parent)
chain: ITYPPGVKEISDKISKEEMVRRLK

Variants of: B1
Test: protein stability index of a GFP-peptide fusion (GPS, HEK-293T) (PSI 1-6); higher = more stable
Settings: c terminus: a fixed tail appended
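Note: lentivirally expressed fusions sorted by FACS into six bins by GFP to DsRed ratio, PSI derived from sequencing read proportions per bin multiplied by bin number.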

Row | Variant | protein stability index
1 | ITYPPAVKEISDKISKEEMVRRLK | 4.26
2 | ITYPPSVKEISDKISKEEMVRRLK | 3.96
3 | ITYPPDVKEISDKISKEEMVRRLK | 4.43
4 | ITYPPFVKEISDKISKEEMVRRLK | 3.31
5 | ITYPPYVKEISDKISKEEMVRRLK | 2.88
6 | ITYPPEVKEISDKISKEEMVRRLK | 5.04
7 | ITYPPRVKEISDKISKEEMVRRLK | 4
8 | ITYPPNVKEISDKISKEEMVRRLK | 3.54
9 | ITYPPWVKEISDKISKEEMVRRLK | 3.3
10 | ITYPPGVKEISDKISTEEMVRRLK | 3.06
11 | ITYPPGVKEISDKISHEEMVRRLK | 3.75
12 | ITYPPGVKEISDKISVEEMVRRLK | 3.36
13 | ITYPPGVKEISDKISNEEMVRRLK | 2.63
14 | ITYPPGVKEISDKISCEEMVRRLK | 3.87
15 | ITYPPGVQEISDKISKEEMVRRLK | 4.29
16 | ITYPPGVFEISDKISKEEMVRRLK | 3.15
17 | ITYPPGVEEISDKISKEEMVRRLK | 3.78
18 | ITYPPGVCEISDKISKEEMVRRLK | 3.31
19 | ITYPPGVIEISDKISKEEMVRRLK | 3.12
20 | ITYPPGVYEISDKISKEEMVRRLK | 3.21
21 | ITYPPGVVEISDKISKEEMVRRLK | 4.67
22 | ITYPPGVPEISDKISKEEMVRRLK | 3.69
23 | ITYPPGVKEISDQISKEEMVRRLK | 4.33
24 | ITYPPGVKEISDHISKEEMVRRLK | 3.7

Row | Variant | protein stability index
25 | ITYPPGVKEISDTISKEEMVRRLK | 3.96
26 | ITYPPGVKEISDWISKEEMVRRLK | 2.84
27 | ITYPPGVKEISDRISKEEMVRRLK | 4.39
28 | ITYPPGVKEISDSISKEEMVRRLK | 4.35
29 | ITYPPGVKEISDDISKEEMVRRLK | 4.69
30 | ITYPPGVKEISDIISKEEMVRRLK | 4.1
31 | ITYPPGVKEISDVISKEEMVRRLK | 3.51
32 | ITYPQGVKEISDKISKEEMVRRLK | 4.17
33 | ITYPFGVKEISDKISKEEMVRRLK | 3.79
34 | ITYPHGVKEISDKISKEEMVRRLK | 3.67
35 | ITYPKGVKEISDKISKEEMVRRLK | 3.74
36 | ITYPWGVKEISDKISKEEMVRRLK | 3.15
37 | ITYPAGVKEISDKISKEEMVRRLK | 4.44
38 | ITYPNGVKEISDKISKEEMVRRLK | 4.01
39 | ITYPPGVKTISDKISKEEMVRRLK | 3.15
40 | ITYPPGVKQISDKISKEEMVRRLK | 3.35
41 | ITYPPGVKIISDKISKEEMVRRLK | 3.15
42 | ITYPPGVKRISDKISKEEMVRRLK | 2.11
43 | ITYPPGVKMISDKISKEEMVRRLK | 3.51
44 | ITYPPGVKHISDKISKEEMVRRLK | 3.43
45 | ITYPPGVKWISDKISKEEMVRRLK | 2.24
46 | ITYPPGVKNISDKISKEEMVRRLK | 3.59
47 | ITYPPGVKKISDKISKEEMVRRLK | 3.66
